Experimental data from patent US11491212.

B1: FIXa Y155F/R318Y/R338E/T343R (protein)
chain 1: not shown
chain 2: not shown
B2: FIXa-Y155F/K228N/I251S/R318Y/R338E/R403E/E410N (protein)
chain 1: not shown
chain 2: not shown
B3: FIXa-Y155F/K247N/N249S/R318Y/R338E/T343R/R403E/E410N (protein)
chain 1: not shown
chain 2: not shown
B4: FIXa Y155F/K247N/N249S/R338E/T343R (protein)
chain 1: not shown
chain 2: not shown
B5: FIXa-R318Y/T343R/R403E/E410N (protein)
chain 1: not shown
chain 2: not shown
B6: FIXa R318Y/R338E/T343R (protein)
chain 1: not shown
chain 2: not shown
B7: FIXa-Y155F/K247N/N249S/N260S/R318Y/R338E/R403E/E410N (protein)
chain 1: not shown
chain 2: not shown
B8: FIXa-Y155F/R338E/T343R/R403E/E410N (protein)
chain 1: not shown
chain 2: not shown
B9: FIXa-K228N/I251S/R318Y/R338E/R403E/E410N (protein)
chain 1: not shown
chain 2: not shown
B10: FIXa-N260S/R318Y/R338E/T343R/R403E/E410N (protein)
chain 1: not shown
chain 2: not shown
B11: FIXa K247N/N249S/T343R/R403E/E410N (protein)
chain 1: not shown
chain 2: not shown
B12: FIXa Y155F/K247N/N249S/R338E/R403E (protein)
chain 1: not shown
chain 2: not shown
B13: FIXa R318Y/R338E/E410N (mature FIX numbering) (protein)
chain 1: not shown
chain 2: not shown
B14: FIXa Y155F/K247N/N249S/R318Y/R338E/T343R/E410N (protein)
chain 1: not shown
chain 2: not shown

Factor X, P00742, sequence (P00742 whole entry, looked up): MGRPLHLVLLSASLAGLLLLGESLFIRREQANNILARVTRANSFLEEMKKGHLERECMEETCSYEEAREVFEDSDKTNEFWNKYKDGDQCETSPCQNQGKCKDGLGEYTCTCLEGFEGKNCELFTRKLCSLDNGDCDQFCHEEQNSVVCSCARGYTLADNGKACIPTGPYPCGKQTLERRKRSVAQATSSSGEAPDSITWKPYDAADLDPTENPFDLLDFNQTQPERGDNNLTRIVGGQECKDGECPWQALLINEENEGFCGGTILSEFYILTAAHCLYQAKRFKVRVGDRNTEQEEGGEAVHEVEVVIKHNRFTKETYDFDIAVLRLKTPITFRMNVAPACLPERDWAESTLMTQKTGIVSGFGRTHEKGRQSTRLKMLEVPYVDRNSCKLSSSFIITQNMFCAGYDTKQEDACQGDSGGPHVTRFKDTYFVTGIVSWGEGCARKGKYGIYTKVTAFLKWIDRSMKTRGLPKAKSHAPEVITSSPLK
Factor X (FX), P00742, sequence (P00742 whole entry, looked up): as above

Protein	% of WT kcat/KM (Factor X, P00742)	kcat/KM (Factor X, P00742)	kcat (s^-1), activation of FX by FIXa in the Xase complex (Factor X (FX), P00742)
B1	771%	3.6e+08 M⁻¹ s⁻¹	7.9 s⁻¹
B2	–	1.4e+08 M⁻¹ s⁻¹	–
B3	–	4e+08 M⁻¹ s⁻¹	–
B4	1579%	7.3e+08 M⁻¹ s⁻¹	–
B5	–	5.8e+07 M⁻¹ s⁻¹	–
B6	324%	1.5e+08 M⁻¹ s⁻¹	4.5 s⁻¹
B7	–	5.7e+07 M⁻¹ s⁻¹	–
B8	–	2.4e+08 M⁻¹ s⁻¹	–
B9	–	2.1e+08 M⁻¹ s⁻¹	–
B10	–	2.9e+08 M⁻¹ s⁻¹	–
B11	285%	1.3e+08 M⁻¹ s⁻¹	8 s⁻¹
B12	299%	1.4e+08 M⁻¹ s⁻¹	–
B13	770%	–	–
B14	1091%	5e+08 M⁻¹ s⁻¹	–
